# Square brackets hold non-standard residues; d marks the D form. Ends that are not written are not given here. Nle = CCCC[C@H](N)C(=O)O
# Tests used:
# hMC3-R = molecular target: T1, hMC3-R (Homo sapiens, UniProt P41968); test: competitive inhibition binding assay, 125I-NDP-alpha-MSH, hMC3-R membranes; conditions: 1 μM test peptide; 0.4 nM 125I-NDP-alpha-MSH; hMC3-R membranes
# T1 construct: expressed in transfected cells
# Summary of the method: (§1)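 Membranes from hMC3-R, hMC4-R, hMC5-R or B-16 cells (MC1-R) incubated 90 min at room temperature with 0.4 nM 125I-NDP-alpha-MSH and rhenium-complexed test peptide, typically 1 μM, in HEPES pH 7.2 with Mg/Ca/K. Filter-bound radioactivity counted; % inhibition of specific binding (1 μM alpha-MSH defines nonspecific), triplicate means.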
# hMC5-R = molecular target: T2, hMC5-R (Homo sapiens, UniProt P33032); test: competitive inhibition binding assay, 125I-NDP-alpha-MSH, hMC5-R membranes; conditions: 1 μM test peptide; 0.4 nM 125I-NDP-alpha-MSH; hMC5-R membranes
# T2 construct: expressed in transfected cells
# Summary of the method: as §1
# MC1-R = molecular target: T3, MC1-R (Mus musculus, UniProt Q01727); test: competitive inhibition binding assay, 125I-NDP-alpha-MSH, B-16 mouse melanoma cell membranes; conditions: 1 μM test peptide; 0.4 nM 125I-NDP-alpha-MSH; B-16 mouse melanoma cell membranes
# T3 construct: membranes prepared from hMC3-R, hMC4-R, hMC5-R, and B-16 mouse melanoma cells (containing MC1-R); endogenous in cells; host or cells: B-16 mouse melanoma cells (membranes)
# Summary of the method: as §1
# hMC4-R = molecular target: T4, hMC4-R (Homo sapiens, UniProt P32245); test: competitive inhibition binding assay, 125I-NDP-alpha-MSH, hMC4-R membranes; conditions: 1 μM test peptide; 0.4 nM 125I-NDP-alpha-MSH; hMC4-R membranes
# T4 construct: expressed in transfected cells
# Summary of the method: as §1
# T1 sequence (P41968 whole entry): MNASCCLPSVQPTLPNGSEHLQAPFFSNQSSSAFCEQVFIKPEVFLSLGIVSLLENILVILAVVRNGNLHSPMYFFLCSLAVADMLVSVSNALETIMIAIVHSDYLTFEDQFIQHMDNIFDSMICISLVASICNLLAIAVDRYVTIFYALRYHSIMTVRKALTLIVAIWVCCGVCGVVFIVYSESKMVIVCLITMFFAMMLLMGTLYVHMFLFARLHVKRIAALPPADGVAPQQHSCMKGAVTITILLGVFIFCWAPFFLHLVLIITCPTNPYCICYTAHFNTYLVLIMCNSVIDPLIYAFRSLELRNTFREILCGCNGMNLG
# T2 sequence (P33032 whole entry): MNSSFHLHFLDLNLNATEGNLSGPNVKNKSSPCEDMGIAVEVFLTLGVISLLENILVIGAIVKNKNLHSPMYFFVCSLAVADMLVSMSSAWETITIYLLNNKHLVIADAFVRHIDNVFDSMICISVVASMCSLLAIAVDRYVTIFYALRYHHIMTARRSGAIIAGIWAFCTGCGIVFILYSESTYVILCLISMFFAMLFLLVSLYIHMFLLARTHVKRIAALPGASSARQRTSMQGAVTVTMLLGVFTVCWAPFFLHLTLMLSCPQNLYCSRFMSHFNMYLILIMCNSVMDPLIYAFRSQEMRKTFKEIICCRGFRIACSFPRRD
# T4 sequence (P32245 whole entry): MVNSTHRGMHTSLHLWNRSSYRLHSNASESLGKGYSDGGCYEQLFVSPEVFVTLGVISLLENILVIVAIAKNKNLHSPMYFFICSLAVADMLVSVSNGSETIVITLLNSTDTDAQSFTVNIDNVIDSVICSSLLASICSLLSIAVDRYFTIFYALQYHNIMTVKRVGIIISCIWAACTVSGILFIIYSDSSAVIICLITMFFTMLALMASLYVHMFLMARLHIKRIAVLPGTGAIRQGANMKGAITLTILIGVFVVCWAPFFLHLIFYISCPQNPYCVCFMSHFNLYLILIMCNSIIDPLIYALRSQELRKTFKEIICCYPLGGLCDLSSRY
# T3 sequence (Q01727 whole entry): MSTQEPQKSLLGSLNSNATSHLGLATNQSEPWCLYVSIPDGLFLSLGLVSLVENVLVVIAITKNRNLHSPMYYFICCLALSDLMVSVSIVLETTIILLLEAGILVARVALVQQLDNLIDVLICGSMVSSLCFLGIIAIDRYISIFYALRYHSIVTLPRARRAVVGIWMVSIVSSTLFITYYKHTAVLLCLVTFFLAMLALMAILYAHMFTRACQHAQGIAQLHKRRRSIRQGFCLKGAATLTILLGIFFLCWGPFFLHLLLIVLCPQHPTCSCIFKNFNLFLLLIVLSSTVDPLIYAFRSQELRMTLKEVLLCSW
substance,measurement,setting,value
Tyr-Val-Nle-Gly-His-D-Phe-Cys-Trp-Asp-Arg-Phe-NH2 (YV[Nle]GH[dF]CWDRF-NH2; numbers in words are those of the source; also: oxorhenium(V) N3S1 chelate complex (Re=O)) [5-5],% Inhibition at 1 μM at Melanocortin Receptor 3,hMC3-R,15%
same,% Inhibition at 1 μM at Melanocortin Receptor 5,hMC5-R,28%
same,% Inhibition at 1 μM at Melanocortin Receptor 1,MC1-R,67%
same,% Inhibition at 1 μM at Melanocortin Receptor 4,hMC4-R,26%
Ac-Ser-Tyr-Ser-Nle-Glu-His-Cys-Phe-Arg-Trp-Gly-Lys-Pro-Val-NH2 (Ac-SYS[Nle]EHCFRWGKPV-NH2; not fully specified (bridges); printed as Ac-Ser-Tyr-Ser-Nle-Glu-His-Cys-Phe-Arg-Trp-Gly-Lys-Pro-Val-NH2; numbers in words are those of the source; also: oxorhenium(V) N3S1 chelate (Re(V)=O)) [1-8],% Inhibition at 1 μM at Melanocortin Receptor 3,hMC3-R,0%
same,% Inhibition at 1 μM at Melanocortin Receptor 5,hMC5-R,1%
same,% Inhibition at 1 μM at Melanocortin Receptor 1,MC1-R,42%
same,% Inhibition at 1 μM at Melanocortin Receptor 4,hMC4-R,0%
Tyr-Val-Nle-Gly-His-D-Phe-Arg-Trp-Asp-Arg-Cys-NH2 (YV[Nle]GH[dF]RWDRC-NH2; numbers in words are those of the source; also: oxorhenium(V) N3S1 chelate complex (Re=O)) [5-1],% Inhibition at 1 μM at Melanocortin Receptor 3,hMC3-R,92%
same,% Inhibition at 1 μM at Melanocortin Receptor 5,hMC5-R,98%
same,% Inhibition at 1 μM at Melanocortin Receptor 1,MC1-R,101%
same,% Inhibition at 1 μM at Melanocortin Receptor 4,hMC4-R,95%
Ac-Ser-Tyr-Ser-Nle-Glu-His-Phe-Arg-D-Cys-Trp-Gly-Lys-Pro-Val-NH2 (chain 1 Ac-SYS[Nle]EHFR; chain 2 [dC]WGKPV-NH2; not fully specified (bridges); numbers in words are those of the source; also: oxorhenium(V) N3S1 chelate (Re(V)=O)) [2-6],% Inhibition at 1 μM at Melanocortin Receptor 3,hMC3-R,2%
same,% Inhibition at 1 μM at Melanocortin Receptor 5,hMC5-R,6%
same,% Inhibition at 1 μM at Melanocortin Receptor 1,MC1-R,46%
same,% Inhibition at 1 μM at Melanocortin Receptor 4,hMC4-R,6%
Tyr-Val-Nle-Gly-His-Cys-Phe-Arg-Trp-Asp-Arg-Phe-NH2 (YV[Nle]GHCFRWDRF-NH2; numbers in words are those of the source; also: oxorhenium(V) N3S1 chelate (Re=O) with Cys) [4-7],% Inhibition at 1 μM at Melanocortin Receptor 3,hMC3-R,17%
same,% Inhibition at 1 μM at Melanocortin Receptor 5,hMC5-R,15%
same,% Inhibition at 1 μM at Melanocortin Receptor 1,MC1-R,−4%
same,% Inhibition at 1 μM at Melanocortin Receptor 4,hMC4-R,4%
Tyr-Val-Nle-Cys-Gly-His-Phe-Arg-Trp-Asp-Arg-Phe-NH2 (YV[Nle]CGHFRWDRF-NH2; not fully specified (bridges); printed as Tyr-Val-Nle-Cys-Gly-His-Phe-Arg-Trp-Asp-Arg-Phe-NH2; numbers in words are those of the source; also: oxorhenium(V) N3S1 chelate (Re=O) with Cys) [4-9],% Inhibition at 1 μM at Melanocortin Receptor 3,hMC3-R,19%
same,% Inhibition at 1 μM at Melanocortin Receptor 5,hMC5-R,43%
same,% Inhibition at 1 μM at Melanocortin Receptor 1,MC1-R,1%
same,% Inhibition at 1 μM at Melanocortin Receptor 4,hMC4-R,4%
Ac-Ser-Tyr-Ser-Nle-Glu-His-Phe-Arg-Trp-Gly-D-Cys-Lys-Pro-Val-NH2 (chain 1 EHFRWG; chain 2 CKPV; not fully specified; Ac-Ser-Tyr-Ser-Nle N-term; D-residue; amide; printed: Glu-His-Phe-Arg-Trp-Gly-; printed: Cys-Lys-Pro-Val-) [2-4],% Inhibition at 1 μM at Melanocortin Receptor 3,hMC3-R,27%
same,% Inhibition at 1 μM at Melanocortin Receptor 5,hMC5-R,21%
same,% Inhibition at 1 μM at Melanocortin Receptor 1,MC1-R,91%
same,% Inhibition at 1 μM at Melanocortin Receptor 4,hMC4-R,40%
Ac-Ser-Tyr-D-Cys-Ser-Nle-Glu-His-Phe-Arg-Trp-Gly-Lys-Pro-Val-NH2 (Ac-SY[dC]S[Nle]EHFRWGKPV-NH2; not fully specified (bridges); printed as Ac-Ser-Tyr-D-Cys-Ser-Nle-Glu-His-Phe-Arg-Trp-Gly-Lys-Pro-Val-NH2; numbers in words are those of the source; also: oxorhenium(V) N3S1 chelate (Re(V)=O)) [2-12],% Inhibition at 1 μM at Melanocortin Receptor 3,hMC3-R,21%
same,% Inhibition at 1 μM at Melanocortin Receptor 5,hMC5-R,17%
same,% Inhibition at 1 μM at Melanocortin Receptor 1,MC1-R,97%
same,% Inhibition at 1 μM at Melanocortin Receptor 4,hMC4-R,47%
Ac-Ser-Tyr-Cys-Ser-Nle-Glu-His-Phe-Arg-Trp-Gly-Lys-Pro-Val-NH2 (chain 1 Ac-SYCS[Nle]; chain 2 EHFRWGKPV-NH2; not fully specified (bridges); printed as Ac-Ser-Tyr-Cys-Ser-Nle-Glu-His-Phe-Arg-Trp-Gly-Lys-Pro-Val-NH2; also: oxorhenium(V) N3S1 chelate (Re(V)=O)) [1-12],% Inhibition at 1 μM at Melanocortin Receptor 3,hMC3-R,15%
same,% Inhibition at 1 μM at Melanocortin Receptor 5,hMC5-R,19%
same,% Inhibition at 1 μM at Melanocortin Receptor 1,MC1-R,96%
same,% Inhibition at 1 μM at Melanocortin Receptor 4,hMC4-R,26%
Tyr-Val-Nle-Gly-His-D-Phe-Arg-Trp-Cys-Asp-Arg-Phe-NH2 (YV[Nle]GH[dF]RWCDRF-NH2; also: Re complex) [3-4],% Inhibition at 1 μM at Melanocortin Receptor 3,hMC3-R,88%
same,% Inhibition at 1 μM at Melanocortin Receptor 5,hMC5-R,100%
same,% Inhibition at 1 μM at Melanocortin Receptor 1,MC1-R,98%
same,% Inhibition at 1 μM at Melanocortin Receptor 4,hMC4-R,94%
Tyr-Val-Nle-Gly-His-D-Phe-Arg-Cys-Trp-Asp-Arg-Phe-NH2 (YV[Nle]GH[dF]RCWDRF-NH2; also: Re complex) [3-5],% Inhibition at 1 μM at Melanocortin Receptor 3,hMC3-R,45%
same,% Inhibition at 1 μM at Melanocortin Receptor 5,hMC5-R,81%
same,% Inhibition at 1 μM at Melanocortin Receptor 1,MC1-R,83%
same,% Inhibition at 1 μM at Melanocortin Receptor 4,hMC4-R,33%
Tyr-Val-Nle-Gly-His-Cys-D-Phe-Arg-Trp-Asp-Arg-Phe-NH2 [3-7] (YV[Nle]GHC[dF]RWDRF-NH2; numbers in words are those of the source; also: oxorhenium(V) N3S1 chelate complex (Re=O)),% Inhibition at 1 μM at Melanocortin Receptor 3,hMC3-R,50%
same,% Inhibition at 1 μM at Melanocortin Receptor 5,hMC5-R,56%
same,% Inhibition at 1 μM at Melanocortin Receptor 1,MC1-R,39%
same,% Inhibition at 1 μM at Melanocortin Receptor 4,hMC4-R,28%
Tyr-Val-Nle-Gly-His-D-Phe-Arg-Cys-Asp-Arg-Phe-NH2 (YV[Nle]GH[dF]RCDRF-NH2; numbers in words are those of the source; also: oxorhenium(V) N3S1 chelate complex (Re=O)) [5-4],% Inhibition at 1 μM at Melanocortin Receptor 3,hMC3-R,11%
same,% Inhibition at 1 μM at Melanocortin Receptor 5,hMC5-R,58%
same,% Inhibition at 1 μM at Melanocortin Receptor 1,MC1-R,86%
same,% Inhibition at 1 μM at Melanocortin Receptor 4,hMC4-R,18%
Tyr-Val-Nle-Gly-His-D-Phe-Cys-Arg-Trp-Asp-Arg-Phe-NH2 (YV[Nle]GH[dF]CRWDRF-NH2; also: Re complex) [3-6],% Inhibition at 1 μM at Melanocortin Receptor 3,hMC3-R,20%
same,% Inhibition at 1 μM at Melanocortin Receptor 5,hMC5-R,31%
same,% Inhibition at 1 μM at Melanocortin Receptor 1,MC1-R,52%
same,% Inhibition at 1 μM at Melanocortin Receptor 4,hMC4-R,31%
Tyr-Val-Nle-Gly-His-Phe-Arg-Trp-Asp-Arg-Cys-Phe-NH2 (YV[Nle]GHFRWDRCF-NH2; numbers in words are those of the source; also: oxorhenium(V) N3S1 chelate (Re=O) with Cys) [4-2],% Inhibition at 1 μM at Melanocortin Receptor 3,hMC3-R,49%
same,% Inhibition at 1 μM at Melanocortin Receptor 5,hMC5-R,51%
same,% Inhibition at 1 μM at Melanocortin Receptor 1,MC1-R,75%
same,% Inhibition at 1 μM at Melanocortin Receptor 4,hMC4-R,23%
Tyr-Val-Nle-Gly-His-Cys-D-Phe-Arg-Trp-Asp-Arg-Phe-NH2 [3-8] (YV[Nle]GHC[dF]RWDRF-NH2; numbers in words are those of the source; also: oxorhenium(V) N3S1 chelate complex (Re=O)),% Inhibition at 1 μM at Melanocortin Receptor 3,hMC3-R,60%
same,% Inhibition at 1 μM at Melanocortin Receptor 5,hMC5-R,84%
same,% Inhibition at 1 μM at Melanocortin Receptor 1,MC1-R,86%
same,% Inhibition at 1 μM at Melanocortin Receptor 4,hMC4-R,55%
Tyr-Val-Nle-Cys-Gly-His-D-Phe-Arg-Trp-Asp-Arg-Phe-NH2 (YV[Nle]CGH[dF]RWDRF-NH2; not fully specified (bridges); printed as Tyr-Val-Nle-Cys-Gly-His-D-Phe-Arg-Trp-Asp-Arg-Phe-NH2; numbers in words are those of the source; also: oxorhenium(V) N3S1 chelate complex (Re=O)) [3-10],% Inhibition at 1 μM at Melanocortin Receptor 3,hMC3-R,78%
same,% Inhibition at 1 μM at Melanocortin Receptor 5,hMC5-R,86%
same,% Inhibition at 1 μM at Melanocortin Receptor 1,MC1-R,84%
same,% Inhibition at 1 μM at Melanocortin Receptor 4,hMC4-R,80%

# From patent US7351690B2, “Knockout identification of target-specific sites in peptides” (priority 2000, dated 2008)
